# Measured values from publication PMC6983858, “Biochemical and structural analyses reveal that the tumor suppressor neurofibromin (NF1) forms a high-affinity dimer” (The Journal of Biological Chemistry, 2019).
# T1: neurofibromin EF fragment (1821–2818) (human, UniProt P21359-2 1821-2818)
# T1 construct: neurofibromin, human, NF1 isoform 2 (NM_000267.3); residues 1821-2818; numbers count on: the 2818-residue isoform; TEV cleavage (ENLYFQ/G) probably leaves a G at the N-terminus; also called EF domain; EF(1821–2818); source: Tni-FNL insect cells (baculovirus), purified; not shown: His6, N-terminal, cleaved; MBP, N-terminal, cleaved
# T1 sequence (looked up): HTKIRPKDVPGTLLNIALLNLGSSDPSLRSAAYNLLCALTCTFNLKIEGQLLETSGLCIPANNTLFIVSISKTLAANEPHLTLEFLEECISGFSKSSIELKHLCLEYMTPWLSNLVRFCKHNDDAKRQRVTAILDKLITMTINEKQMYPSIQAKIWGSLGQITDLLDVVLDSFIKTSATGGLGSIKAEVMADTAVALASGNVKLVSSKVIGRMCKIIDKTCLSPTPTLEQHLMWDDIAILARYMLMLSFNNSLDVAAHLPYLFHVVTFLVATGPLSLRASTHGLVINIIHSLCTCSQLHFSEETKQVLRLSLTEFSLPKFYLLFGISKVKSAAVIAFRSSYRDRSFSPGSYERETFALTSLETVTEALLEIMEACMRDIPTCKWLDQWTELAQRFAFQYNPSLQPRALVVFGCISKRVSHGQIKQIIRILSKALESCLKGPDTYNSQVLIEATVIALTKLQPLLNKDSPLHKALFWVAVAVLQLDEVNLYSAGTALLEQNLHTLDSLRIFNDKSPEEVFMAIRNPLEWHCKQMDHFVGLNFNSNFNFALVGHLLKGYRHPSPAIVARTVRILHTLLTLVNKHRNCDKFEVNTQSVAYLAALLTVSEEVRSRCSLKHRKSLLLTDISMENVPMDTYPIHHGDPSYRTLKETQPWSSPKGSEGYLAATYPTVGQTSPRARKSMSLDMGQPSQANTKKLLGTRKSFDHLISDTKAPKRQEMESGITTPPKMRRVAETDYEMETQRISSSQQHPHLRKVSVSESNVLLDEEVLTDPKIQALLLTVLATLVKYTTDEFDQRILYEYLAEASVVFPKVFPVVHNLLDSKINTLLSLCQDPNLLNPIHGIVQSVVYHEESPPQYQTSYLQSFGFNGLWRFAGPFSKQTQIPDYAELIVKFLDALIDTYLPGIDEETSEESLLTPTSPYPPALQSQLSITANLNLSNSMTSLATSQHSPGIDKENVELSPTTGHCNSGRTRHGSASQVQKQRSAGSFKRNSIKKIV
# B1: neurofibromin CDEF fragment (861–2818) (domain or fragment, human, UniProt P21359-2 861-2818, looked up)
# chain: ATYSPPMGPVSERKGSMISVMSSEGNADTPVSKFMDRLLSLMVCNHEKVGLQIRTNVKDLVGLELSPALYPMLFNKLKNTISKFFDSQGQVLLTDTNTQFVEQTIAIMKNLLDNHTEGSSEHLGQASIETMMLNLVRYVRVLGNMVHAIQIKTKLCQLVEVMMARRDDLSFCQEMKFRNKMVEYLTDWVMGTSNQAADDDVKCLTRDLDQASMEAVVSLLAGLPLQPEEGDGVELMEAKSQLFLKYFTLFMNLLNDCSEVEDESAQTGGRKRGMSRRLASLRHCTVLAMSNLLNANVDSGLMHSIGLGYHKDLQTRATFMEVLTKILQQGTEFDTLAETVLADRFERLVELVTMMGDQGELPIAMALANVVPCSQWDELARVLVTLFDSRHLLYQLLWNMFSKEVELADSMQTLFRGNSLASKIMTFCFKVYGATYLQKLLDPLLRIVITSSDWQHVSFEVDPTRLEPSESLEENQRNLLQMTEKFFHAIISSSSEFPPQLRSVCHCLYQVVSQRFPQNSIGAVGSAMFLRFINPAIVSPYEAGILDKKPPPRIERGLKLMSKILQSIANHVLFTKEEHMRPFNDFVKSNFDAARRFFLDIASDCPTSDAVNHSLSFISDGNVLALHRLLWNNQEKIGQYLSSNRDHKAVGRRPFDKMATLLAYLGPPEHKPVADTHWSSLNLTSSKFEEFMTRHQVHEKEEFKALKTLSIFYQAGTSKAGNPIFYYVARRFKTGQINGDLLIYHVLLTLKPYYAKPYEIVVDLTHTGPSNRFKTDFLSKWFVVFPGFAYDNVSAVYIYNCNSWVREYTKYHERLLTGLKGSKRLVFIDCPGKLAEHIEHEQQKLPAATLALEEDLKVFHNALKLAHKDTKVSIKVGSTAVQVTSAERTKVLGQSVFLNDIYYASEIEEICLVDENQFTLTIANQGTPLTFMHQECEAIVQSIIHIRTRWELSQPDSIPQHTKIRPKDVPGTLLNIALLNLGSSDPSLRSAAYNLLCALTCTFNLKIEGQLLETSGLCIPANNTLFIVSISKTLAANEPHLTLEFLEECISGFSKSSIELKHLCLEYMTPWLSNLVRFCKHNDDAKRQRVTAILDKLITMTINEKQMYPSIQAKIWGSLGQITDLLDVVLDSFIKTSATGGLGSIKAEVMADTAVALASGNVKLVSSKVIGRMCKIIDKTCLSPTPTLEQHLMWDDIAILARYMLMLSFNNSLDVAAHLPYLFHVVTFLVATGPLSLRASTHGLVINIIHSLCTCSQLHFSEETKQVLRLSLTEFSLPKFYLLFGISKVKSAAVIAFRSSYRDRSFSPGSYERETFALTSLETVTEALLEIMEACMRDIPTCKWLDQWTELAQRFAFQYNPSLQPRALVVFGCISKRVSHGQIKQIIRILSKALESCLKGPDTYNSQVLIEATVIALTKLQPLLNKDSPLHKALFWVAVAVLQLDEVNLYSAGTALLEQNLHTLDSLRIFNDKSPEEVFMAIRNPLEWHCKQMDHFVGLNFNSNFNFALVGHLLKGYRHPSPAIVARTVRILHTLLTLVNKHRNCDKFEVNTQSVAYLAALLTVSEEVRSRCSLKHRKSLLLTDISMENVPMDTYPIHHGDPSYRTLKETQPWSSPKGSEGYLAATYPTVGQTSPRARKSMSLDMGQPSQANTKKLLGTRKSFDHLISDTKAPKRQEMESGITTPPKMRRVAETDYEMETQRISSSQQHPHLRKVSVSESNVLLDEEVLTDPKIQALLLTVLATLVKYTTDEFDQRILYEYLAEASVVFPKVFPVVHNLLDSKINTLLSLCQDPNLLNPIHGIVQSVVYHEESPPQYQTSYLQSFGFNGLWRFAGPFSKQTQIPDYAELIVKFLDALIDTYLPGIDEETSEESLLTPTSPYPPALQSQLSITANLNLSNSMTSLATSQHSPGIDKENVELSPTTGHCNSGRTRHGSASQVQKQRSAGSFKRNSIKKIV
# notes: neurofibromin, human, NF1 isoform 2 (NM_000267.3); residues 861-2818; numbers count on: the 2818-residue isoform; TEV cleavage (ENLYFQ/G) probably leaves a G at the N-terminus; also called NF1-CDEF; NF1(861–2818); source: Tni-FNL insect cells (baculovirus), purified; not shown: His6, N-terminal, cleaved; MBP, N-terminal, cleaved
# B2: neurofibromin DEF fragment (1541–2818) (domain or fragment, human, UniProt P21359-2 1541-2818, looked up)
# chain: LNLTSSKFEEFMTRHQVHEKEEFKALKTLSIFYQAGTSKAGNPIFYYVARRFKTGQINGDLLIYHVLLTLKPYYAKPYEIVVDLTHTGPSNRFKTDFLSKWFVVFPGFAYDNVSAVYIYNCNSWVREYTKYHERLLTGLKGSKRLVFIDCPGKLAEHIEHEQQKLPAATLALEEDLKVFHNALKLAHKDTKVSIKVGSTAVQVTSAERTKVLGQSVFLNDIYYASEIEEICLVDENQFTLTIANQGTPLTFMHQECEAIVQSIIHIRTRWELSQPDSIPQHTKIRPKDVPGTLLNIALLNLGSSDPSLRSAAYNLLCALTCTFNLKIEGQLLETSGLCIPANNTLFIVSISKTLAANEPHLTLEFLEECISGFSKSSIELKHLCLEYMTPWLSNLVRFCKHNDDAKRQRVTAILDKLITMTINEKQMYPSIQAKIWGSLGQITDLLDVVLDSFIKTSATGGLGSIKAEVMADTAVALASGNVKLVSSKVIGRMCKIIDKTCLSPTPTLEQHLMWDDIAILARYMLMLSFNNSLDVAAHLPYLFHVVTFLVATGPLSLRASTHGLVINIIHSLCTCSQLHFSEETKQVLRLSLTEFSLPKFYLLFGISKVKSAAVIAFRSSYRDRSFSPGSYERETFALTSLETVTEALLEIMEACMRDIPTCKWLDQWTELAQRFAFQYNPSLQPRALVVFGCISKRVSHGQIKQIIRILSKALESCLKGPDTYNSQVLIEATVIALTKLQPLLNKDSPLHKALFWVAVAVLQLDEVNLYSAGTALLEQNLHTLDSLRIFNDKSPEEVFMAIRNPLEWHCKQMDHFVGLNFNSNFNFALVGHLLKGYRHPSPAIVARTVRILHTLLTLVNKHRNCDKFEVNTQSVAYLAALLTVSEEVRSRCSLKHRKSLLLTDISMENVPMDTYPIHHGDPSYRTLKETQPWSSPKGSEGYLAATYPTVGQTSPRARKSMSLDMGQPSQANTKKLLGTRKSFDHLISDTKAPKRQEMESGITTPPKMRRVAETDYEMETQRISSSQQHPHLRKVSVSESNVLLDEEVLTDPKIQALLLTVLATLVKYTTDEFDQRILYEYLAEASVVFPKVFPVVHNLLDSKINTLLSLCQDPNLLNPIHGIVQSVVYHEESPPQYQTSYLQSFGFNGLWRFAGPFSKQTQIPDYAELIVKFLDALIDTYLPGIDEETSEESLLTPTSPYPPALQSQLSITANLNLSNSMTSLATSQHSPGIDKENVELSPTTGHCNSGRTRHGSASQVQKQRSAGSFKRNSIKKIV
# notes: neurofibromin, human, NF1 isoform 2 (NM_000267.3); numbers count on: the 2818-residue isoform; TEV cleavage (ENLYFQ/G) probably leaves a G at the N-terminus; also called NF1-DEF; source: Tni-FNL insect cells (baculovirus), purified; not shown: His6, N-terminal, cleaved; MBP, N-terminal, cleaved
# B3: neurofibromin C*D domain (1085–1816) (domain or fragment, human, UniProt P21359-2 1085-1816, looked up)
# chain: LQPEEGDGVELMEAKSQLFLKYFTLFMNLLNDCSEVEDESAQTGGRKRGMSRRLASLRHCTVLAMSNLLNANVDSGLMHSIGLGYHKDLQTRATFMEVLTKILQQGTEFDTLAETVLADRFERLVELVTMMGDQGELPIAMALANVVPCSQWDELARVLVTLFDSRHLLYQLLWNMFSKEVELADSMQTLFRGNSLASKIMTFCFKVYGATYLQKLLDPLLRIVITSSDWQHVSFEVDPTRLEPSESLEENQRNLLQMTEKFFHAIISSSSEFPPQLRSVCHCLYQVVSQRFPQNSIGAVGSAMFLRFINPAIVSPYEAGILDKKPPPRIERGLKLMSKILQSIANHVLFTKEEHMRPFNDFVKSNFDAARRFFLDIASDCPTSDAVNHSLSFISDGNVLALHRLLWNNQEKIGQYLSSNRDHKAVGRRPFDKMATLLAYLGPPEHKPVADTHWSSLNLTSSKFEEFMTRHQVHEKEEFKALKTLSIFYQAGTSKAGNPIFYYVARRFKTGQINGDLLIYHVLLTLKPYYAKPYEIVVDLTHTGPSNRFKTDFLSKWFVVFPGFAYDNVSAVYIYNCNSWVREYTKYHERLLTGLKGSKRLVFIDCPGKLAEHIEHEQQKLPAATLALEEDLKVFHNALKLAHKDTKVSIKVGSTAVQVTSAERTKVLGQSVFLNDIYYASEIEEICLVDENQFTLTIANQGTPLTFMHQECEAIVQSIIHIRTRWELSQPD
# notes: neurofibromin, human, NF1 isoform 2 (NM_000267.3); numbers count on: the 2818-residue isoform; TEV cleavage (ENLYFQ/G) probably leaves a G at the N-terminus; also called CD domains; source: Tni-FNL insect cells (baculovirus), purified; not shown: His6, N-terminal, cleaved; MBP, N-terminal, cleaved
# B4: neurofibromin C* domain (1085–1530) (domain or fragment, human, UniProt P21359-2 1085-1530, looked up)
# chain: LQPEEGDGVELMEAKSQLFLKYFTLFMNLLNDCSEVEDESAQTGGRKRGMSRRLASLRHCTVLAMSNLLNANVDSGLMHSIGLGYHKDLQTRATFMEVLTKILQQGTEFDTLAETVLADRFERLVELVTMMGDQGELPIAMALANVVPCSQWDELARVLVTLFDSRHLLYQLLWNMFSKEVELADSMQTLFRGNSLASKIMTFCFKVYGATYLQKLLDPLLRIVITSSDWQHVSFEVDPTRLEPSESLEENQRNLLQMTEKFFHAIISSSSEFPPQLRSVCHCLYQVVSQRFPQNSIGAVGSAMFLRFINPAIVSPYEAGILDKKPPPRIERGLKLMSKILQSIANHVLFTKEEHMRPFNDFVKSNFDAARRFFLDIASDCPTSDAVNHSLSFISDGNVLALHRLLWNNQEKIGQYLSSNRDHKAVGRRPFDKMATLLAYLGPPEH
# notes: neurofibromin, human, NF1 isoform 2 (NM_000267.3); numbers count on: the 2818-residue isoform; TEV cleavage (ENLYFQ/G) probably leaves a G at the N-terminus; source: Tni-FNL insect cells (baculovirus), purified; not shown: His6, N-terminal, cleaved; MBP, N-terminal, cleaved
# Key:
# [1] = target: the molecule itself; assay: AUC; sedimentation velocity of CDEF, 2.2 to 8.8 μM, 40,000 rpm, 20 °C, 300 mM NaCl, 20 mM HEPES-NaOH pH 7.3, 5 mM TCEP
# [2] = target: T2, neurofibromin ABC fragment (2–1540) (human, UniProt P21359-2 2-1540); assay: SEC; equimolar mixtures of two purified NF1 fragments on an analytical SEC column, fractions analysed by SDS-PAGE; conditions: both partners purified
# T2 construct: neurofibromin, human, NF1 isoform 2 (NM_000267.3); numbers count on: the 2818-residue isoform; TEV cleavage (ENLYFQ/G) probably leaves a G at the N-terminus; also called NF1-ABC; source: Tni-FNL insect cells (baculovirus), purified; not shown: His6, N-terminal, cleaved; MBP, N-terminal, cleaved
# [3] = target: T1, neurofibromin EF fragment (1821–2818); assay: as above; conditions: both partners purified
# T2 sequence (P21359 other isoform, or with tags, fused parts or gaps): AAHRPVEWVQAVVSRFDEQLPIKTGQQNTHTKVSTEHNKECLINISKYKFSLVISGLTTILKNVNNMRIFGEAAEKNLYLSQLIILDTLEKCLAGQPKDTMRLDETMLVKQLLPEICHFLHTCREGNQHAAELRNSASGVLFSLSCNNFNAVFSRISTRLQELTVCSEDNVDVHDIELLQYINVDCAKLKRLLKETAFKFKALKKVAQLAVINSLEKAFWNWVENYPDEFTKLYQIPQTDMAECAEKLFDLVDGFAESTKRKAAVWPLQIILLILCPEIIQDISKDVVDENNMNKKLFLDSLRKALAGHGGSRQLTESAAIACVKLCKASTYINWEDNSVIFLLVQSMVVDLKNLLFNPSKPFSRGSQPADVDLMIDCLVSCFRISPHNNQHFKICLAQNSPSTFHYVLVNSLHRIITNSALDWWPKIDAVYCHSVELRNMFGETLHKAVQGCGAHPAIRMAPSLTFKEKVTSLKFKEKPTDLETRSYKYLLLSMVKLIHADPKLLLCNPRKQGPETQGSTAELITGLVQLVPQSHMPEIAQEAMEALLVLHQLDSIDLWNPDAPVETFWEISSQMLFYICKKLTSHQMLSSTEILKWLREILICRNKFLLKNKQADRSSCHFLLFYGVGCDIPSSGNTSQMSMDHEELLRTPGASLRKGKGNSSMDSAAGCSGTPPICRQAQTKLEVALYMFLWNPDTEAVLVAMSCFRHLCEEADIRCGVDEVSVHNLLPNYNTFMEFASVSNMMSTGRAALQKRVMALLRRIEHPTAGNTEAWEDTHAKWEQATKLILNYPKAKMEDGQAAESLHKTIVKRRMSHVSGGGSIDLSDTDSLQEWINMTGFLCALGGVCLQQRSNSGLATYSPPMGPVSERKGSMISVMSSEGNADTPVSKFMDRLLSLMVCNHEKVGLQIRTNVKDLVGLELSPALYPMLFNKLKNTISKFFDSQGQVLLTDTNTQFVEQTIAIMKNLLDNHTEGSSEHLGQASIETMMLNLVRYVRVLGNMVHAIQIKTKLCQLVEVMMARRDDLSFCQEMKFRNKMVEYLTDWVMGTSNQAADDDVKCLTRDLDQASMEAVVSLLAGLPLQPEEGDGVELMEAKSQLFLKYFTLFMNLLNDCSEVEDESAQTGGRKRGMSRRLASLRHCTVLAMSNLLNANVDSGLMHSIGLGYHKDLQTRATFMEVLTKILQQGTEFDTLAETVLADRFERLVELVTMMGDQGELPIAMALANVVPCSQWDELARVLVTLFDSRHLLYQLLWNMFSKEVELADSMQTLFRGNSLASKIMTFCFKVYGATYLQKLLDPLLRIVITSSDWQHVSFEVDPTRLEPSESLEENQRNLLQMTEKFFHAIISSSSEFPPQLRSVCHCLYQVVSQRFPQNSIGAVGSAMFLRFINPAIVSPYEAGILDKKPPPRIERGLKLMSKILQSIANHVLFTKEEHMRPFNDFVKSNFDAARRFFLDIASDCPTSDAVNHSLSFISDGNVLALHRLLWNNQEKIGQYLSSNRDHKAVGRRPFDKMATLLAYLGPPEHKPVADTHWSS
Binder,binding result [3],also measured
B1,–,stoichiometry N [1]: 2
B2,–,binding result [2]: binds
B3,binds,–
B4,binds,–
